Laboratory results taken from the supplement of paper PMC11246515.
± gives the standard deviation of the averaged measurements.

Experiment: total protein half-life in vivo (active degradation + dilution); higher = more stable protein
[1] = E. coli NCM3722 delta-clpP delta-lon delta-hslV, growth: N-lim chemostat, doubling time 6 h
[2] = E. coli NCM3722 delta-clpP, growth: N-lim chemostat, doubling time 6 h
[3] = E. coli NCM3722 delta-hslV, growth: N-lim chemostat, doubling time 6 h
[4] = E. coli NCM3722 delta-lon, growth: N-lim chemostat, doubling time 6 h
[5] = E. coli NCM3722 delta-smpB, growth: N-lim chemostat, doubling time 6 h
[6] = wild type E. coli NCM3722, growth: C-lim chemostat, doubling time 3 h
[7] = wild type E. coli NCM3722, growth: C-lim chemostat, doubling time 6 h
[8] = wild type E. coli NCM3722, growth: C-lim chemostat, doubling time 12 h
[9] = wild type E. coli NCM3722, growth: N-lim chemostat, doubling time 6 h
[10] = wild type E. coli NCM3722, growth: N-lim chemostat, doubling time 12 h
[11] = wild type E. coli NCM3722, growth: P-lim chemostat, doubling time 6 h
[12] = wild type E. coli NCM3722, growth: P-lim chemostat, doubling time 12 h

| Sequence | total protein half-life in vivo [1] [h] | total protein half-life in vivo [2] [h] | total protein half-life in vivo [3] [h] | total protein half-life in vivo [4] [h] | total protein half-life in vivo [5] [h] | total protein half-life in vivo [6] [h] | total protein half-life in vivo [7] [h] | total protein half-life in vivo [8] [h] | total protein half-life in vivo [9] [h] | total protein half-life in vivo [10] [h] | total protein half-life in vivo [11] [h] | total protein half-life in vivo [12] [h] |
| --- | --- | --- | --- | --- | --- | --- | --- | --- | --- | --- | --- | --- |
| MRRLPGILLLTGAALVVIAALLVSGLRIALPHLDAWRPEILNKIESATGMPVEASQLSASWQNFGPTLEAHDIRAELKDGGEFSVKRVTLALDVWQSLLHMRWQFRDLTFWQLRFRTNTPITSGGSDDSLEASHISDLFLRQFDHFDLRDSEVSFLTPSGQRAELAIPQLTWLNDPRRHRAEGLVSLSSLTGQHGVMQVRMDLRDDEGLLSNGRVWLQADDIDLKPWLGKWMQDNIALETAQFSLEGWMTIDKGDVTGGDVWLKQGGASWLGEKQTHTLSVDNLTAHITRENPGWQFSIPDTRITMDGKPWPSGALTLAWIPEQDVGGKDNKRSDELRIRASNLELAGLEGIRPLAAKLSPALGDVWRSTQPSGKINTLALDIPLQAADKTRFQASWSDLAWKQWKLLPGAEHFSGTLSGSVENGLLTASMKQAKMPYETVFRAPLEIADGQATISWLNNNKGFQLDGRNIDVKAKAVHARGGFRYLQPANDEPWLGILAGISTDDGSQAWRYFPENLMGKDLVDYLSGAIQGGEADNATLVYGGNPQLFPYKHNEGQFEVLVPLRNAKFAFQPDWPALTNLDIELDFINDGLWMKTDGVNLGGVRASNLTAVIPDYSKEKLLIDADIKGPGKAVGPYFDETPLKDSLGATLQELQLDGDVNARLHLDIPLNGELVTAKGEVTLRNNSLFIKPLDSTLKNLSGKFSFINSDLQSEPLTASWFNQPLNVDFSTKEGAKAYQVAVNLNGNWQPAKTGVLPEAVNEALSGSVAWDGKVGIDLPYHAGATYNIELNGDLKNVSSHLPSPLAKPAGEPLAVNVKVDGNLNSFELTGQAGADNHFNSRWLLGQKLTLDRAIWAADSKTLPPLPEQSGVELNMPPMNGAEWLALFQKGAAESVGGAASFPQHITLRTPMLSLGNQQWNNLSIVSQPTANGTLVEAQGREINATLAMRNNAPWLANIKYLYYNPSVAKTRGDSTPSSPFPTTERINFRGWPDAQIRCTECWFWGQKFGRIDSDITISGDTLTLTNGLIDTGFSRLTADGEWVNNPGNERTSLKGKLRGQKIDAAAEFFGVTTPIRQSSFNVDYDLHWRKAPWQPDEATLNGIIHTQLGKGEITEINTGHAGQLLRLLSVDALMRKLRFDFRDTFGEGFYFDSIRSTAWIKDGVMHTDDTLVDGLEADIAMKGSVNLVRRDLNMEAVVAPEISATVGVAAAFAVNPIVGAAVFAASKVLGPLWSKVSILRYHISGPLDDPQINEVLRQPRKEKAQ | 6.25 ± 0.48 | 6.38 ± 0.3 | 6.18 ± 0.12 | 6.21 ± 0.18 | 5.844 ± 0.013 | 3.185 ± 0.015 | 6.62 ± 0.46 | 12.6 ± 0.73 | 6.11 ± 0.16 | 12.2 ± 1.2 | 5.67 ± 0.26 | 9.67 ± 1.6 |
| MRRVNILCSFALLFASHTSLAVTYPLPPEGSRLVGQSFTVTVPDHNTQPLETFAAQYGQGLSNMLEANPGADVFLPKSGSQLTIPQQLILPDTVRKGIVVNVAEMRLYYYPPDSNTVEVFPIGIGQAGRETPRNWVTTVERKQEAPTWTPTPNTRREYAKRGESLPAFVPAGPDNPMGLYAIYIGRLYAIHGTNANFGIGLRVSQGCIRLRNDDIKYLFDNVPVGTRVQIIDQPVKYTTEPDGSNWLEVHEPLSRNRAEYESDRKVPLPVTPSLRAFINGQEVDVNRANAALQRRSGMPVQISSGSRQMF | 5.58 ± 1.1 | 6.17 ± 0.48 | 5.997 ± 0.037 | 6.9 ± 1 | 5.83 ± 0.5 | 3.35 ± 0.46 | 5.64 ± 0.53 | 10.128 ± 0.0088 | 6.43 ± 0.88 | 11.4 ± 0.34 | 5.24 ± 0.69 | 11.3 ± 0.51 |
| MRSAQVYRWQIPMDAGVVLRDRRLKTRDGLYVCLREGEREGWGEISPLPGFSQETWEEAQSVLLAWVNNWLAGDCELPQMPSVAFGVSCALAELTDTLPQAANYRAAPLCNGDPDDLILKLADMPGEKVAKVKVGLYEAVRDGMVVNLLLEAIPDLHLRLDANRAWTPLKGQQFAKYVNPDYRDRIAFLEEPCKTRDDSRAFARETGIAIAWDESLREPDFAFVAEEGVRAVVIKPTLTGSLEKVREQVQAAHALGLTAVISSSIESSLGLTQLARIAAWLTPDTIPGLDTLDLMQAQQVRRWPGSTLPVVEVDALERLL | – | – | 3.779 ± 0.0063 | 4.33 ± 0.7 | 3.7 ± 0.25 | 3.25 ± 0.19 | 5.71 ± 0.44 | 13.2 | 3.88 ± 0.14 | 6.68 ± 0.4 | 5.7 ± 0.073 | 11.5 ± 0.8 |
| MRSFSQLWPTLKRLLAYGSPWRKPLGIAVLMMWVAAAAEVSGPLLISYFIDNMVAKNNLPLKVVAGLAAAYVGLQLFAAGLHYAQSLLFNRAAVGVVQQLRTDVMDAALRQPLSEFDTQPVGQVISRVTNDTEVIRDLYVTVVATVLRSAALVGAMLVAMFSLDWRMALVAIMIFPVVLVVMVIYQRYSTPIVRRVRAYLADINDGFNEIINGMSVIQQFRQQARFGERMGEASRSHYMARMQTLRLDGFLLRPLLSLFSSLILCGLLMLFGFSASGTIEVGVLYAFISYLGRLNEPLIELTTQQAMLQQAVVAGERVFELMDGPRQQYGNDDRPLQSGTIEVDNVSFAYRDDNLVLKNINLSVPSRNFVALVGHTGSGKSTLASLLMGYYPLTEGEIRLDGRPLSSLSHSALRQGVAMVQQDPVVLADTFLANVTLGRDISEERVWQALETVQLAELARSMSDGIYTPLGEQGNNLSVGQKQLLALARVLVETPQILILDEATASIDSGTEQAIQHALAAVREHTTLVVIAHRLSTIVDADTILVLHRGQAVEQGTHQQLLAAQGRYWQMYQLQLAGEELAASVREEESLSA [P0AAG5] | 6.44 ± 0.43 | 6 ± 0.12 | 4.33 ± 0.16 | 3.97 ± 0.13 | 4.31 ± 0.43 | 2.85 | 4.47 ± 0.42 | 8.8 ± 2.3 | 4.589 ± 0.038 | 6.71 ± 0.085 | 5.09 ± 0.38 | 10.3 ± 0.7 |
| MRSIARRTAVGAALLLVMPVAVWISGWRWQPGEQSWLLKAAFWVTETVTQPWGVITHLILFGWFLWCLRFRIKAAFVLFAILAAAILVGQGVKSWIKDKVQEPRPFVIWLEKTHHIPVDEFYTLKRAERGNLVKEQLAEEKNIPQYLRSHWQKETGFAFPSGHTMFAASWALLAVGLLWPRRRTLTIAILLVWATGVMGSRLLLGMHWPRDLVVATLISWALVAVATWLAQRICGPLTPPAEENREIAQREQES [P0A924] | 6.18 ± 0.47 | 7.12 ± 0.17 | 7.17 | 5.52 ± 0.8 | 5.95 ± 0.56 | – | 6.009 ± 0.045 | 14.4 ± 1.7 | 6.36 ± 0.65 | 11.9 ± 0.65 | 6.14 ± 0.54 | 10.7 ± 2 |
| MRSSAKQEELVKAFKALLKEEKFSSQGEIVAALQEQGFDNINQSKVSRMLTKFGAVRTRNAKMEMVYCLPAELGVPTTSSPLKNLVLDIDYNDAVVVIHTSPGAAQLIARLLDSLGKAEGILGTIAGDDTIFTTPANGFTVKDLYEAILELFDQEL [P0A6D0] | 5.74 | 5.76 ± 0.36 | 5.36 ± 0.18 | 6.26 | 6.3 ± 1.1 | 3.07 ± 0.25 | 5.2 ± 1 | 10.7 ± 1.8 | 5.26 ± 0.67 | 10.5 | 4.85 ± 0.56 | 11.8 ± 0.96 |
| MRTFSGKRSTLALAIAGVTAMSGFMAMPEARAEGFIDDSTLTGGIYYWQRERDRKDVTDGDKYKTNLSHSTWNANLDFQSGYAADMFGLDIAAFTAIEMAENGDSSHPNEIAFSKSNKAYDEDWSGDKSGISLYKAAAKFKYGPVWARAGYIQPTGQTLLAPHWSFMPGTYQGAEAGANFDYGDAGALSFSYMWTNEYKAPWHLEMDEFYQNDKTTKVDYLHSFGAKYDFKNNFVLEAAFGQAEGYIDQYFAKASYKFDIAGSPLTTSYQFYGTRDKVDDRSVNDLYDGTAWLQALTFGYRAADVVDLRLEGTWVKADGQQGYFLQRMTPTYASSNGRLDIWWDNRSDFNANGEKAVFFGAMYDLKNWNLPGFAIGASYVYAWDAKPATWQSNPDAYYDKNRTIEESAYSLDAVYTIQDGRAKGTMFKLHFTEYDNHSDIPSWGGGYGNIFQDERDVKFMVIAPFTIF | – | – | – | – | – | 1.45 | 2.07 | 2.36 | – | – | – | – |
| MRTLLAILLFPLLVQAAGEGMWQASSVGITLNHRGESMSSAPLSTRQPASGLMTLVAWRYQLIGPTPSGLRVRLCSQSRCVELEGQSGTTVAFSGIAAAEPLRFIWEVPGGGRLIPPLKVQRNEVIVNYR | – | – | – | – | – | – | 4.74 | 8.78 ± 2.5 | – | – | – | – |
| MRTRHLVGLISGVLILSVLLPVGLSIWLAHQQVETSFIEELDTYSSRVAIRANKVATQGKDALQELERWQGAACSEAHLMEMRRVSYSYRYIQEVAYIDNNVPQCSSLEHESPPDTFPEPGKISKDGYRVWLTSHNDLGIIRYMVAMGTAHYVVMIDPASFIDVIPYSSWQIDAAIIGNAHNVVITSSDEIAQGIITRLQKTPGEHIENNGIIYDILPLPEMNISIITWASTKMLQKGWHRQVFIWLPLGLVIGLLAAMFVLRILRRIQSPHHRLQDAIENRDICVHYQPIVSLANGKIVGAEALARWPQTDGSWLSPDSFIPLAQQTGLSEPLTLLIIRSVFEDMGDWLRQHPQQHISINLESPVLTSEKIPQLLRDMINHYQVNPRQIALELTEREFADPKTSAPIISRYREAGHEIYLDDFGTGYSSLSYLQDLDVDILKIDKSFVDALEYKNVTPHIIEMAKTLKLKMVAEGIETSKQEEWLRQHGVHYGQGWLYSKALPKEDFLRWAEQHL | 6.97 ± 0.34 | – | 5.64 ± 0.36 | 5.57 ± 1.2 | 6.12 ± 0.67 | 3.21 ± 0.33 | – | – | 6 ± 0.23 | 12.2 ± 0.44 | 6.32 ± 0.94 | 12.6 ± 0.13 |
| MRVLVTGGSGYIGSHTCVQLLQNGHDVIILDNLCNSKRSVLPVIERLGGKHPTFVEGDIRNEALMTEILHDHAIDTVIHFAGLKAVGESVQKPLEYYDNNVNGTLRLISAMRAANVKNFIFSSSATVYGDQPKIPYVESFPTGTPQSPYGKSKLMVEQILTDLQKAQPDWSIALLRYFNPVGAHPSGDMGEDPQGIPNNLMPYIAQVAVGRRDSLAIFGNDYPTEDGTGVRDYIHVMDLADGHVVAMEKLANKPGVHIYNLGAGVGNSVLDVVNAFSKACGKPVNYHFAPRREGDLPAYWADASKADRELNWRVTRTLDEMAQDTWHWQSRHPQGYPD | 6.39 ± 1.9 | 4.762 ± 0.027 | 4.54 ± 0.37 | 5 ± 0.24 | 5.61 ± 1.2 | 3.11 ± 0.27 | 5.62 ± 0.26 | 11.6 ± 0.67 | 4.53 ± 0.95 | 13.7 ± 1.8 | 5.91 ± 0.51 | 11.7 ± 0.53 |
| MRVNLLITMIIFALIWPVTALRAAVSKTTWADAPAREFVFVENNSDDNFFVTPGGALDPRLTGANRWTGLKYTGSGTIYQQSLGYIDNGYNTGLYTNWKFDMWLENSPVSSPLTGLRCINWYAGCNMTTSLILPQTTDASGFYGATVTSGGAKWMHGMLSDAFYQYMQQMPVGSSFTMTINACQTSVNYDASSGARCKDQASGNWYVRNVTHTKAANLRLINTHSLAEVFINSDGVPTLGEGNADCRTQTIGSRSGLSCKMVNYTLQTNGLSNTSIHIFPAIANSSLASAVGAYDMQFSLNGSSWKPVSNTAYYYTFNEMKSADSIYVFFSSNFFKQMVNLGISDINTKDLFNFRFQNTTSPESGWYEFSTSNTLIIKPRDFSISIISDEYTQTPSREGYVGSGESALDFGYIVTTSGKTAADEVLIKVTGPAQVIGGRSYCVFSSDDGKAKVPFPATLSFITRNGATKTYDAGCDDSWRDMTDALWLTTPWTDISGEVGQMDKTTVKFSIPMDNAISLRTVDDNGWFGEVSASGEIHVQATWRNIN | 5.48 | 4.16 ± 0.31 | 4.45 ± 0.53 | – | 5.38 ± 0.3 | 2.41 | 5.13 ± 0.19 | 10.2 ± 0.39 | 5.187 ± 0.038 | 10.3 | 6.55 | 10.9 ± 2.3 |
